Patent US20130116185A1, “PHOSPHATIDYLINOSITOL 3-KINASES ACTIVITY REGULATOR INCLUDING THE FIFTH ZINC FINGER DOMAIN OF FOG2” (SNU R&DB FOUNDATION, priority 2010, published 2013)
Values belong to the molecule of their own block, whether it stands above or below them.

Columns and labels:
Assay type in all cases: cell-based
MDA MB 231 cells [1] = test: Cell proliferation MTT assay; settings: synthesized peptide, increasing concentration, FIG. 6B
Description: Because the PI3K activation is critical in cell growth, the cell proliferation was analyzed to investigate the inhibitory effect of the FOG2 zinc finger domain using the MTT assay.
MDA MB 231 cells were seeded in a 96-well plate, and transfected with 100 ng DNA of pCKflag, FOG2-wt, FOG2-ZF-5-m or FOG2-ZF-6-m using Lipofectamine 2000. On 3 days post-transfection, the MTT assay was performed.
MDA MB 231 cells (2×10^3 cells) were seeded in a 96-well plate and treated with 4 μM each peptide for 3 days. After the treatment, 50 μl of MTT solution (2 mg/ml) was added to each well, incubated at 37° C. for 1 hr. Then, 150 μl of DMSO was added to each well and the absorbance value of each well was measured at 590 nm using a microplate reader.

MDA MB 231 cells [2] = test: Cell migration, modified Boyden chamber method; settings: 4 μM peptide, 2 days of treatment, 18 hr migration, FIG. 3B
Description: MDA MB 231 cells were transfected with pCK-flag (control), FOG2-wt (wild type) and FOG2 mutants having modified zinc finger domain (FOG2-ZF-5-m and FOG2-ZF-6-m). The cell migration was then analyzed using the modified Boyden chamber method (Albini A et al., Cancer Res 1987 47:3239-45). Following the transfection for 24 hr, MDA MB 231 cells (1×10^5) were suspended in a serum-free medium and seeded in triplicate in the upper part of BD chamber ([…] pore size). The lower part was filled with the serum-free medium. Following the incubation at 37° C. for 18 hr, non-migrating cells positioned at the upper surface of filters were cleaned with a cotton swab. The migrating cells passing through the lower surface of filters were fixed with 70% ethanol and treated with the Giemsa staining solution for 50 min. Then, the cells were rinsed with water and observed under a microscope. The cell migration rate was determined by counting the number of cells present in randomly-selected six sections and the migration range was expressed as the average number of cells per a microscopic field.
MDA MB 231 cells were incubated with 4 μM Mock (control, DMSO), 4 μM ZF-5-wt-24, 4 μM ZF-5-m-24, 4 μM ZF-5-wt-20 or 4 μM ZF-3-wt-21. After treatment, the cell migration was analyzed using the modified Boyden chamber method (Albini A et al., Cancer Res 1987 47:3239-45). After 2 days of treatment, MDA MB 231 cells (1×10^5) were suspended in the serum free medium and seeded in triplicate in the upper part of BD chamber ([…] pore size). The lower part was filled with the serum free medium. Following the incubation at 37° C. for 18 hr, non-migrating cells positioned at the upper surface of filters were cleaned with the cotton swab. The migrating cells passing through the lower side surface of filters were fixed with 70% ethanol and stained using the Giemsa stain method. The cell migration rate was determined by counting the number of cells present in randomly-selected six sections and the migration range was expressed as the average number of cells per a microscopic field.

PI3K [3] = target: T1, PI3K (Homo sapiens, UniProt P27986); test: PI3K activity in MDA MB 231 cells incubated with zinc finger domain peptides; parameters: The cell lysates were immunoprecipitated with p85α (sc-1637, Santa Cruz) and Protein G-Sepharose beads; endogenous in cells
Description: (§1) For measurement of PI3K activity, 10 μl of sonicated PIP2 (1 μg/μl, Calbiochem), 10 μl of 100 mM MgCl2 and 1 μl of [-^32P]ATP (500 μCi/ml) were added to the kinase buffer (10 mM Tris-HCl (pH 7.4), 150 mM NaCl, 1 mM Na3VO4, 10 mM ZnCl2) and incubated at 37° C. for 30 min. After incubation, 20 μl of 6 N HCl was added to stop the reaction and PIP2 was extracted by treatment with 200 μl of methanol:chloroform (1:1) solution. The amount of radioactively labeled PIP2 in the extract was measured using a scintillator counter.
For peptide treatment, cells were trypsinized to detach them from a culture dish and their aliquot (2×10^5 cells) was incubated with 4 μM peptides in 100 mm dishes. The control was incubated with Mock (DMSO).

PI3K [4] = target: T1, PI3K; test: IGF-1-induced PI3K activation in Hep3B cells incubated with peptides; parameters: The cell lysates were immunoprecipitated with p85α (sc-1637, Santa Cruz) and Protein G-Sepharose beads; endogenous in cells; host or cells: Hep3B; settings: 4 μM peptides, 48 hr, FIG. 2C
Description: as §1
In addition, Hep3B liver cancer cells were incubated with 4 μM peptides for 48 hr and the PI3K activity was analyzed.

MDA MB 231 cells [5] = test: Apoptosis by FACS analysis (propidium iodide) in MDA MB 231 cells; settings: transfected with 1 μg FOG2 fragment, 2 days, FIG. 7A
Description: PI3K inactivation has been reported to cause cancer cell apoptosis, and FOG2 is known to inhibit the PI3K activity. To test whether PI3K inactivation by overexpressing FOG2 induces apoptosis, MDA MB 231 cells overexpressed FOG2 were analyzed with FACS.
MDA MB 231 cells were incubated with Full-FOG2[1-1151], FOG2[1-412], FOG2[413-789] or FOG2[802-1151]. The cells (5×10^4) were seeded in a 12-well plate and transfected with 1 μg of Full-FOG2[1-1151], FOG2[1-412], FOG2[413-789] or FOG2[802-1151] using Lipofectamine 2000. The cells were incubated at 37° C. for 2 days and subject to FACS analysis.
The cells were incubated with FOG2 fragments and fixed with 70% ethanol for 16 hr. The fixed cells were stained using RNase (5 mg/ml) and propidium iodide ([…]). The amount of DNA in stained cells was analyzed with Cell Quest program of FACS caliber (Becton Dickinson).

T1 sequence (P27986 whole entry, the tested form may be a part): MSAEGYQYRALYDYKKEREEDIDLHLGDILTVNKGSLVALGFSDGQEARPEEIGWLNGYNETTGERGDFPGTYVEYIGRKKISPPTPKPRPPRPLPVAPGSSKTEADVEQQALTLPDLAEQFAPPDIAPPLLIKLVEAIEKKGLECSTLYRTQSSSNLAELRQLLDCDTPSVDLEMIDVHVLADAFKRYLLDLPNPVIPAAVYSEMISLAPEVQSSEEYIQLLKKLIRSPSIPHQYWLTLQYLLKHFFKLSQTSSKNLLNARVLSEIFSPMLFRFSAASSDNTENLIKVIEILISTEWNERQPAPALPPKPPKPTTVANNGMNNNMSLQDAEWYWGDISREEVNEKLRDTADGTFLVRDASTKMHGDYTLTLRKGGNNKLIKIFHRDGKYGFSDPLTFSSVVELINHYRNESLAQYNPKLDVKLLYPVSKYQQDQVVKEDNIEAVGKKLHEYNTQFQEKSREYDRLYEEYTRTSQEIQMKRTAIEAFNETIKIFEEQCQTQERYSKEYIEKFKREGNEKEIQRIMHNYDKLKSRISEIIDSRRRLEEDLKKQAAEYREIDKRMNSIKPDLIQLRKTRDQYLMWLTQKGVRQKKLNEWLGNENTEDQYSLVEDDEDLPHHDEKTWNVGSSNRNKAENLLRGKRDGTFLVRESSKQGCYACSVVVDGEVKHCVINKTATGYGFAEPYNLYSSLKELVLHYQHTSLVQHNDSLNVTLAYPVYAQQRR

inhibition of PI3K activity (PI3K [3]; MDA MB 231 cells, 4 μM peptide, 48 hr, relative to ZF-5-wt-24, FIG. 5B): approximately 30%
PI3K activity (PI3K [3]; synthesized peptides, FIG. 5): does not affect
IGF-1-induced PI3K activation (PI3K [4]): did not inhibit
Molecule: ZF-5-m-24: FOG2 mutant peptide with altered fifth zinc finger domain (24 amino acids) (CFECNITFNNLDNYLYLVAKKAYC)
inhibitory effect on cell proliferation (MDA MB 231 cells [1]): does not
reduction of cell migration (MDA MB 231 cells [2]): not observed

IGF-1-induced PI3K activation (PI3K [4]): did not inhibit
Molecule: ZF-3-wt-21: The peptide not comprising the fifth zinc finger domain of FOG2 (LKCTVCSYTADSVINFHQHLF) [reference compound]
reduction of cell migration (MDA MB 231 cells [2]): not observed

More lines, now with the values behind:

B1: FOG2[413-789]: The FOG2 protein comprising the amino acid sequence ranging 413-789th amino acid residues of FOG2 full-length amino acid sequence (protein, UniProt Q8WW38 413-789, looked up, fragment)
chain: DLLTRSELPQSQKAMQTKDASSDTELDKCEKKTQLFLTNQRPEIQPTTNKQSFSYTKIKSEPSSPRLASSPVQPNIGPSFPVGPFLSQFSFPQDITMVPQASEILAKMSELVHRRLRHGSSSYPPVIYSPLMPKGATCFECNITFNNLDNYLVHKKHYCSSRWQQMAKSPEFPSVSEKMPEALSPNTGQTSINLLNPAAHSADPENPLLQTSCINSSTVLDLIGPNGKGHDKDFSTQTKKLSTSSNNDDKINGKPVDVKNPSVPLVDGESDPNKTTCEACNITFSRHETYMVHKQYYCATRHDPPLKRSASNKVPAMQRTMRTRKRRKMYEMCLPEQEQRPPLVQQRFLDVANLNNPCTSTQEPTEGLGECYHPRCD
number of apoptotic cells (MDA MB 231 cells [5]): increased

B2: FOG2[1-412]: Truncated FOG2 mutant in pCK-flag vector, residues 1-412 (protein, UniProt Q8WW38 1-412, looked up, fragment)
chain: MSRRKQSKPRQIKRPLEDAIEDEEEECPSEETDIISKGDFPLEESFSTEFGPENLSCEEVEYFCNKGDDEGIQETAESDGDTQSEKPGQPGVETDDWDGPGELEVFQKDGERKIQSRQQLPVGTTWGPFPGKMDLNNNSLKTKAQVPMVLTAGPKWLLDVTWQGVEDNKNNCIVYSKGGQLWCTTTKAISEGEELIAFVVDFDSRLQAASQMTLTEGMYPARLLDSIQLLPQQAAMASILPTAIVNKDIFPCKSCGIWYRSERNLQAHLMYYCSGRQREAAPVSEENEDSAHQISSLCPFPQCTKSFSNARALEMHLNSHSGVKMEEFLPPGASLKCTVCSYTADSVINFHQHLFSHLTQAAFRCNHCHFGFQTQRELLQHQELHVPSGKLPRESDMEHSPSATEDSLQPAT
modifications: FLAG tag
number of apoptotic cells (MDA MB 231 cells [5]): reduces the apoptosis
